Experimental findings from the DeepSol protein solubility set are described below.

The nature of the data set: soluble on expression in E. coli; label from the status in PepcDB or PDB records.
Turning to “MTRQSQDGDATSTPAERAAAARAAAAEAARIAAEAAAAAEEAEKEARDAEAAENRAPAGVAASSGAAADIAAGYSSEGAALELGTVVLDGVVDSAARVRIPLATVNRHGLVAGATGTGKTKTLQGIAEQLSAAGVPVVMADMKGDLSGLSQPGEAGDKITTRASETGDGEWRPAASPVEFLSLGTEGLGIPVRATITAFGPILLAKVLGLNETQESTLGLIFHWADVQGLALLDLLDLRSVIAHLTSDEGKADLKGIGGVSPATAGVILRALVNLEADGGDTFFGEPELETEDLLRVIDGKGVITLFELGAQAARPALFTTFLMWVLADLFQTLPEEGDLDKPKLVFIFDEAHLLFADASKAFLQQVEQTVKLIRSKGVGVFFCTQLPTDVPNGVLSQLGARIQHALRAFTPDDQKALTKTVRTYPTTENYDLEKALTSLGIGEAIVTVLSERGAPTPVAWTRIRPPRSLMDTIGTDAITAAASSSPLSAKYGQTVDRESAYEKLTAKVAGAPAAEPGLDLPPLPDLPTPPPAQPEGPNMAEQILGNSAVKSFLRSAASAAGREISRSIFGTGKRRRR”, the “soluble on expression in E. coli” value is “not soluble”. Consider “MTRRPDRKDVATVDELHASATKLVGLDDFGTDDDNYREALGVLLDAYQGEAGLTVLGSKMNRFFLRGALVARLLSQSAWKQYPEHVDVAIKRPIFVTGLVRTGTTALHRLLGADPAHQGLHMWLAEYPQPRPPRETWESNPLYRQLDADFTQHHAENPGYTGLHFMAAYELEECWQLLRQSLHSVSYEALAHVPSYADWLSRQDWTPSYCRHRRNLQLIGLNDAEKRWVLKNPSHLFALDALMATYPDALVVQTHRPVETIMASMCSLAQHTTEGWSTKFVGAQIGADAMDTWSRGLERFNAARAKYDSAQFYDVDYHDLIADPLGTVADIYRHFGLTLSDEARQAMTTVHAESQSGARAPKHSYSLADYGLTVEMVKERFAGL”, for which the “soluble on expression in E. coli” value is “soluble”.

In the case of “MTSFSLIATAAMGLESVVAEEVRRLGYECQVENGKVTFEGDALAICRANLWLRTADRVKLKVGEFRATTFEELFEQTKALPWADYLPKDAEFPVIGKSVKSTLFSVSDCQAIVKKAVVESLKARYHLSWFPETGPLYRIEVALHKDIATLTIDTSGAGLHKRGYRARQGEAPLRETLAAALVLLTNWTPDRPFVDPFCGSGTIAIEAALIGQNIAPGFNRDFVSEQWPWIGESVWEEARQEAEQMARYDQPLDICGIDLDPHMVEIAKMNAAEAGLSDLISFREGRAEQFRTDAQYGVIVGNPPYGERLGEQREVEALYRAIGRAFAALDTWSVYILTAHRGFETHYGRPATKRRKLFNGFIETHYYQYWGPRPPREARS”, the “soluble on expression in E. coli” value was “not soluble”. Take “MTSIAISSGSFDPITLGHLDIIKRGAKVFDEVYVVVLNNSSKKPFFSVEERLDLIREATKDIPNVKVDSHSGLLVEYAKMRNANAILRGLRAVSDFEYEMQITSMNRKLDENIETFFIMTNNQYSFLSSSIVKEVARYGGSVVDLVPPVVERALKEKFQTPLK”: the “soluble on expression in E. coli” value is “not soluble”. For the sequence “MTSISSEYKLPEKTNTVSTNNSSLGKDEFLKILMTQVQNQDPLNPIDDKEFISQMATFSSLEQMMNLNTTMTQFVENQDPFTTYVDWMGKEVSWTDGKSATDKTGTVSSVKHFKGNYYLVLDDGTEISPANVMSVGQSSKLEHHHHHH”, the “soluble on expression in E. coli” value is recorded as “soluble”.

For “MTSLEKARELLREFPVVDGHNDLPWALREQVRYDLDARDIAADQSAHLHTDLARLRSGGVGAQYWSVYVRSDLPGAVTATLEQIDCVRRLIDRHPGELRAALTAADMEAARAEGRIASLMGAEGGHSIDNSLATLRALYALGVRYMTLTHNDNNAWADSATDEPGVGGLSAFGREVVREMNREGMLVDLSHVAATTMRDALDTSTAPVIFSHSSSRAVCDHPRNIPDDVLERLSANGGMAMVTFVPKFVLQAAVDWTAEADDNMRAHGFHHLDSSPEAMKVHAAFEERVPRPVATVSTVADHLDHMREVAGVDHLGIGGDYDGTPFTPDGLGDVSGYPNLIAELLDRGWSQSDLAKLTWKNAVRVLDAAEDVSRGLRAARGPSNATIEQLDGTAAEQPEG”, the “soluble on expression in E. coli” value is recorded as “soluble”. “MTSLVAYGSDSEGEDDDFFGKPTTEKEETTKNAEKEKEEESEKIAESDEKPTISSFFFSGDDDKAGSSDSDDSEGESVGPKKKRRSGESVTELDKEFTSSIFDNDYAREERMNARMLSRHVDLSDKPSEKERKKSKFTCKNYLKGKCRFGDKCRFSHPVHNRSSDAVNEVSISSEAKFYTTETPEAQVFHSKKFKSSAGQ”: the “soluble on expression in E. coli” value was “not soluble”.

As to “MTSNDSSENLRNRLAEKMAGDITLSEKPGESLKKWRLNFEISQTDIANYLKVSPSVISDYESGRRKSPGTLIVRKIVESLLEIDLERGGKKIHTYETMLNAESGSKSIYSTYEYTLPIQLAKLVNLIEGDIVYKGIEKPLYGFSVVDSQRAILELSSHEFQKLYGWSTDRAMIFTKVSTGKSPLVAIRVTNLKPGAVVLHGLRKEEVESVAVKMAEVDRVPLVATTMDLDQIVQLLKKYSQYYARE”, the “soluble on expression in E. coli” value is given as “not soluble”. For “MTSTFDRVATIIAETCDIPRETITPESHAIDDLGIDSLDFLDIAFAIDKAFGIKLPLEKWTQEVNDGKATTEQYFVLKNLAARIDELVAAKGALEHHHHHH”, the “soluble on expression in E. coli” value is given as “soluble”. With “MTSVTSSATSSPEPPTKVAAAMQTTTGETSISNETSFNASRETSLTALGFLDYLDEEQRAALLGEGLDISTLTWANQVTALRVLESLFNEHAYELVSAVIQHVAQEPGDNPHHFLKFSPEPSTENSWELTLDGPTVGLKVTFDPDGQITFKDAHLGLSPAEVVSVTEALDTSYSESQIKKAAEQLVGSLNPTQQAALQGSGLRGAQLTEEQKTLFLKMTSNWIDLANGDSGSEQQEEIADTFSDTYIIWNEQKDGSAFFQMKGPELDFSYKESVPENAELSARGVPNIQTSFQSPLEHHHHHH”, the “soluble on expression in E. coli” value was “soluble”. Take “MTTETIQSNANLAPLPPHVPEHLVFDFDMYNPSNLSAGVQEAWAVLQESNVPDLVWTRCNGGHWIATRGQLIREAYEDYRHFSSECPFIPREAGEAYDFIPTSMDPPEQRQFRALANQVVGMPVVDKLENRIQELACSLIESLRPQGQCNFTEDYAEPFPIRIFMLLAGLPEEDIPHLKYLTDQMTRPDGSMTFAEAKEALYDYLIPIIEQRRQKPGTDAISIVANGQVNGRPITSDEAKRMCGLLLVGGLDTVVNFLSFSMEFLAKSPEHRQELIERPERIPAACEELLRRFSLVADGRILTSDYEFHGVQLKKGDQILLPQMLSGLDERENACPMHVDFSRQKVSHTTFGHGSHLCLGQHLARREIIVTLKEWLTRIPDFSIAPGAQIQHKSGIVSGVQALPLVWDPATTKAVHHHHHH”: the “soluble on expression in E. coli” value was “soluble”. Regarding “MTTKRIDRDLPSSDDPSSAKRRIEFPEETLENDGAAAIKLLSLLLQCAEYVATDHLREASTLLSEISEICSPFGSSPERVVAYFAQALQTRVISSYLSGACSPLSEKPLTVVQSQKIFSALQTYNSVSPLIKFSHFTANQAIFQALDGEDSVHIIDLDVMQGLQWPALFHILASRPRKLRSIRITGFGSSSDLLASTGRRLADFASSLNLPFEFHPIEGIIGNLIDPSQLATRQGEAVVVHWMQHRLYDVTGNNLETLEILRRLKPNLITVVEQELSYDDGGSFLGRFVEALHYYSALFDALGDGLGEESGERFTVEQIVLGTEIRNIVAHGGGRRKRMKWKEELSRVGFRPVSLRGNPATQAGLLLGMLPWNGYTLVEENGTLRLGWKDLSLLTASAWKSQPFD”, the “soluble on expression in E. coli” value was “soluble”.

For “MTTMNPFLVQSTLPYLAPHFDQIANHHYRPAFDEGMQQKRAEIAAIALNPQTPDFNNTILALEQSGELITRVTSVFFAMTAAHTNDELQRLDEQFSAELAELANDIYLNGELFARVDAVWQRRESLGLDSESIRLVEVIHQRFVLAGAKLAQADKAKLKVLNTEAATLTSQFNQRLLAANKSGGLVVNDIAQLAGMSEQEIALAAEAAREKGLDNKWLIPLLNTTQQPALAEMRDRATREKLFIAGWTRAEKNDANDTRAIIQRLVEIRAQQAKLLGFPHYAAWKIADQMAKTPEAALNFMREIVPAARQRASDELASIQAVIDKQQGGFSAQPWDWAFYAEQVRREKFDLDEAQLRPYFELNTVLNEGVFWTANQLFGIKFVERFDIPVYHPDVRVWEIFDHNGVGLALFYGDFFARDSKSGGAWMGNFVEQSTLNETHPVIYNVCNYQKPAAGEPALLLWDDVITLFHEFGHTLHGLFARQRYATLSGTNTPRDFVEFPSQINEHWATHPQVFARYARHYQSGAAMPDELQQKMRNASLFNKGYEMSELLSAALLDMRWHCLEENEAMQDVDDFELRALVAENMDLPAIPPRYRSSYFAHIFGGGYAAGYYAYLWTQMLADDGYQWFVEQGGLTRENGQRFREAILSRGNSEDLERLHRQWRGKAPQIMPMLQHRGLNI”, the “soluble on expression in E. coli” value was “not soluble”.
